IntAct's records for PubMed 31515488

B1: Cyclin-H (Homo sapiens), P51946 (parent)
chain: MYHNSSQKRHWTFSSEEQLARLRADANRKFRCKAVANGKVLPNDPVFLEPHEEMTLCKYYEKRLLEFCSVFKPAMPRSVVGTACMYFKRFYLNNSVMEYHPRIIMLTCAFLACKVDEFNVSSPQFVGNLRESPLGQEKALEQILEYELLLIQQLNFHLIVHNPYRPFEGFLIDLKTRYPILENPEILRKTADDFLNRIALTDAYLLYTPSQIALTAILSSASRAGITMESYLSESLMLKENRTCLSQLLDIMKSMRNLVKKYEPPRSEEVAVLKQKLERCHSAELALNVITKKRKGYEDDDYVSKKSKHEEEEWTDDDLVESL
B2: Zinc finger and SCAN domain-containing protein 9 (Homo sapiens), O15535 (parent)
chain: MNTNSKEVLSLGVQVPEAWEELLTMKVEAKSHLQWQESRLKRSNPLAREIFRRHFRQLCYQETPGPREALTRLQELCYQWLRPHVSTKEQILDLLVLEQFLSILPKELQGWVREHCPESGEEAVILLEDLERELDEPQHEMVAHRHRQEVLCKEMVPLAEQTPLTLQSQPKEPQLTCDSAQKCHSIGETDEVTKTEDRELVLRKDCPKIVEPHGKMFNEQTWEVSQQDPSHGEVGEHKDRIERQWGNLLGEGQHKCDECGKSFTQSSGLIRHQRIHTGERPYECNECGKAFSRSSGLFNHRGIHNIQKRYHCKECGKVFSQSAGLIQHQRIHKGEKPYQCSQCSKSYSRRSFLIEHQRSHTGERPHQCIECGKSFNRHCNLIRHQKIHTVAELV
B3: Centrosomal protein POC5 (Homo sapiens), Q8NA72 (parent)
chain: MSSDEEKYSLPVVQNDSSRGSSVSSNLQEEYEELLHYAIVTPNIEPCASQSSHPKGELVPDVRISTIHDILHSQGNNSEVRETAIEVGKGCDFHISSHSKTDESSPVLSPRKPSHPVMDFFSSHLLADSSSPATNSSHTDAHEILVSDFLVSDENLQKMENVLDLWSSGLKTNIISELSKWRLNFIDWHRMEMRKEKEKHAAHLKQLCNQINELKELQKTFEISIGRKDEVISSLSHAIGKQKEKIELMRTFFHWRIGHVRARQDVYEGKLADQYYQRTLLKKVWKVWRSVVQKQWKDVVERACQARAEEVCIQISNDYEAKVAMLSGALENAKAEIQRMQHEKEHFEDSMKKAFMRGVCALNLEAMTIFQNRNDAGIDSTNNKKEEYGPGVQGKEHSAHLDPSAPPMPLPVTSPLLPSPPAAVGGASATAVPSAASMTSTRAASASSVHVPVSALGAGSAATAASEEMYVPRVVTSAQQKAGRTITARITGRCDFASKNRISSSLAIMGVSPPMSSVVVEKHHPVTVQTIPQATAAKYPRTIHPESSTSASRSLGTRSAHTQSLTSVHSIKVVD
partner: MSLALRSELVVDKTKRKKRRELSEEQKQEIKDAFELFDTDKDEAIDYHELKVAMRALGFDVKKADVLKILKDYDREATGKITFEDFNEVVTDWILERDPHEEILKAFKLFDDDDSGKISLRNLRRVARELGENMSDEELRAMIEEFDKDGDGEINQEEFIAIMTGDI
B4: Tuftelin-interacting protein 11 (Homo sapiens), Q9UBB9 (parent)
chain: MSLSHLYRDGEGRIDDDDDERENFEITDWDLQNEFNPNRQRHWQTKEEATYGVWAERDSDDERPSFGGKRARDYSAPVNFISAGLKKGAAEEAELEDSDDEEKPVKQDDFPKDFGPRKLKTGGNFKPSQKGFAGGTKSFMDFGSWERHTKGIGQKLLQKMGYVPGRGLGKNAQGIINPIEAKQRKGKGAVGAYGSERTTQSMQDFPVVDSEEEAEEEFQKELSQWRKDPSGSKKKPKYSYKTVEELKAKGRISKKLTAPQKELSQVKVIDMTGREQKVYYSYSQISHKHNVPDDGLPLQSQQLPQSGKEAKAPGFALPELEHNLQLLIDLTEQEIIQNDRQLQYERDMVVNLFHELEKMTEVLDHEERVISNLSKVLEMVEECERRMQPDCSNPLTLDECARIFETLQDKYYEEYRMSDRVDLAVAIVYPLMKEYFKEWDPLKDCTYGTEIISKWKSLLENDQLLSHGGQDLSADAFHRLIWEVWMPFVRNIVTQWQPRNCDPMVDFLDSWVHIIPVWILDNILDQLIFPKLQKEVENWNPLTDTVPIHSWIHPWLPLMQARLEPLYSPIRSKLSSALQKWHPSDSSAKLILQPWKDVFTPGSWEAFMVKNIVPKLGMCLGELVINPHQQHMDAFYWVIDWEGMISVSSLVGLLEKHFFPKWLQVLCSWLSNSPNYEEITKWYLGWKSMFSDQVLAHPSVKDKFNEALDIMNRAVSSNVGAYMQPGARENIAYLTHTERRKDFQYEAMQERREAENMAQRGIGVAASSVPMNFKDLIETKAEEHNIVFMPVIGKRHEGKQLYTFGRIVIYIDRGVVFVQGEKTWVPTSLQSLIDMAK
partner: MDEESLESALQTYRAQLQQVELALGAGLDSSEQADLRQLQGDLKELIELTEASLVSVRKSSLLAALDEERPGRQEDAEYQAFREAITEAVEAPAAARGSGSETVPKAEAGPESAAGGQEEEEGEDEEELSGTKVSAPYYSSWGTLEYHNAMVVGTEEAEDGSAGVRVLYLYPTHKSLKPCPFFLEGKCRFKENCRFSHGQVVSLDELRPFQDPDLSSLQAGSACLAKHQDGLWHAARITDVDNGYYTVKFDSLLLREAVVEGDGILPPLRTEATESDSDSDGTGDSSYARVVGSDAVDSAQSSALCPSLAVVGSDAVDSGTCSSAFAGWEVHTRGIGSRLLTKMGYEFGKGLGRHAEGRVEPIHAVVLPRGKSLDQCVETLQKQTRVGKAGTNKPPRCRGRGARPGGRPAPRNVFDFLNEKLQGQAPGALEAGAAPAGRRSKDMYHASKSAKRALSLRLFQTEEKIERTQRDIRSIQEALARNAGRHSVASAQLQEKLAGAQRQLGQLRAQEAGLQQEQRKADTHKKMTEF
B5: Isoform 1 of Zinc finger protein 18 (Homo sapiens), P17022-1 (parent)
chain: MPVDLGQALGLLPSLAKAEDSQFSESDAALQEELSSPETARQLFRQFRYQVMSGPHETLKQLRKLCFQWLQPEVHTKEQILEILMLEQFLTILPGEIQMWVRKQCPGSGEEAVTLVESLKGDPQRLWQWISIQVLGQDILSEKMESPSCQVGEVEPHLEVVPQELGLENSSSGPGELLSHIVKEESDTEAELALAASQPARLEERLIRDQDLGASLLPAAPQEQWRQLDSTQKEQYWDLMLETYGKMVSGAGISHPKSDLTNSIEFGEELAGIYLHVNEKIPRPTCIGDRQENDKENLNLENHRDQELLHASCQASGEVPSQASLRGFFTEDEPGCFGEGENLPEALQNIQDEGTGEQLSPQERISEKQLGQHLPNPHSGEMSTMWLEEKRETSQKGQPRAPMAQKLPTCRECGKTFYRNSQLIFHQRTHTGETYFQCTICKKAFLRSSDFVKHQRTHTGEKPCKCDYCGKGFSDFSGLRHHEKIHTGEKPYKCPICEKSFIQRSNFNRHQRVHTGEKPYKCSHCGKSFSWSSSLDKHQRSHLGKKPFQ
B6: Lymphotoxin-alpha (Homo sapiens), P01374 (parent)
chain: MTPPERLFLPRVCGTTLHLLLLGLLLVLLPGAQGLPGVGLTPSAAQTARQHPKMHLAHSTLKPAAHLIGDPSKQNSLLWRANTDRAFLQDGFSLSNNSLLVPTSGIYFVYSQVVFSGKAYSPKATSSPLYLAHEVQLFSSQYPFHVPLLSSQKMVYPGLQEPWLHSMYHGAAFQLTQGDQLSTHTDGIPHLVLSPSTVFFGAFAL
partner: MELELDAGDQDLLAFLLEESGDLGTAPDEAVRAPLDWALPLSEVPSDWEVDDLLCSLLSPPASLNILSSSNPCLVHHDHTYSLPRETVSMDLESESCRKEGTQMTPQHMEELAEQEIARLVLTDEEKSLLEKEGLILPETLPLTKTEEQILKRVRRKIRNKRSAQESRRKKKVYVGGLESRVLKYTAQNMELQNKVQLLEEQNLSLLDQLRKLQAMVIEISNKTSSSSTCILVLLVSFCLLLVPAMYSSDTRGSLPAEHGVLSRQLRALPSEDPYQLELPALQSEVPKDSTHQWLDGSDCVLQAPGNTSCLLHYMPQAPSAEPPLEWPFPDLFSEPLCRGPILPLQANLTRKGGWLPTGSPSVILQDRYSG
B7: EF-hand domain-containing protein 1 (Homo sapiens), Q5JVL4 (parent)
chain: MVSNPVHGLPFLPGTSFKDSTKTAFHRSQTLSYRNGYAIVRRPTVGIGGDRLQFNQLSQAELDELASKAPVLTYGQPKQAPPADFIPAHVAFDKKVLKFDAYFQEDVPMSTEEQYRIRQVNIYYYLEDDSMSVIEPVVENSGILQGKLIKRQRLAKNDRGDHYHWKDLNRGINITIYGKTFRVVDCDQFTQVFLESQGIELNPPEKMALDPYTELRKQPLRKYVTPSDFDQLKQFLTFDKQVLRFYAIWDDTDSMYGECRTYIIHYYLMDDTVEIREVHERNDGRDPFPLLMNRQRVPKVLVENAKNFPQCVLEISDQEVLEWYTAKDFIVGKSLTILGRTFFIYDCDPFTRRYYKEKFGITDLPRIDVSKREPPPVKQELPPYNGFGLVEDSAQNCFALIPKAPKKDVIKMLVNDNKVLRYLAVLESPIPEDKDRRFVFSYFLATDMISIFEPPVRNSGIIGGKYLGRTKVVKPYSTVDNPVYYGPSDFFIGAVIEVFGHRFIILDTDEYVLKYMESNAAQYSPEALASIQNHVRKREAPAPEAESKQTEKDPGVQELEALIDTIQKQLKDHSCKDNIREAFQIYDKEASGYVDRDMFFKICESLNVPVDDSLVKELIRMCSHGEGKINYYNFVRAFSN

Variants of: B1
Conditions: with klc3_human KLC3, Q6P597
klc3_human KLC3, Q6P597, sequence (Q6P597 whole entry): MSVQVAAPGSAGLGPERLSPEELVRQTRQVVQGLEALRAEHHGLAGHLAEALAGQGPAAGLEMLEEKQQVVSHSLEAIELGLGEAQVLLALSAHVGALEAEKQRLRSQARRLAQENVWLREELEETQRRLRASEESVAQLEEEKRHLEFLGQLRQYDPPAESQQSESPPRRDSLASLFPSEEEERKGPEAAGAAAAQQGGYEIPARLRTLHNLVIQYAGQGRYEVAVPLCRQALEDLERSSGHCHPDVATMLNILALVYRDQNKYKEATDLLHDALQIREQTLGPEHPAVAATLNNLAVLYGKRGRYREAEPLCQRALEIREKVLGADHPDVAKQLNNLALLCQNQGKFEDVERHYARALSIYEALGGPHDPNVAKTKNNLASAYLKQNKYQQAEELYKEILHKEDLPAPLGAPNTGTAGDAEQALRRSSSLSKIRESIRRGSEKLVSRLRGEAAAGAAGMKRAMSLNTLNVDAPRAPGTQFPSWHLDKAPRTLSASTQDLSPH

Variant	effect of a mutation on the interaction
N155T	disrupting interaction strength

Variants of: B1
Conditions: with lipa1_human PPFIA1, Q13136
lipa1_human PPFIA1, Q13136, sequence (Q13136 whole entry): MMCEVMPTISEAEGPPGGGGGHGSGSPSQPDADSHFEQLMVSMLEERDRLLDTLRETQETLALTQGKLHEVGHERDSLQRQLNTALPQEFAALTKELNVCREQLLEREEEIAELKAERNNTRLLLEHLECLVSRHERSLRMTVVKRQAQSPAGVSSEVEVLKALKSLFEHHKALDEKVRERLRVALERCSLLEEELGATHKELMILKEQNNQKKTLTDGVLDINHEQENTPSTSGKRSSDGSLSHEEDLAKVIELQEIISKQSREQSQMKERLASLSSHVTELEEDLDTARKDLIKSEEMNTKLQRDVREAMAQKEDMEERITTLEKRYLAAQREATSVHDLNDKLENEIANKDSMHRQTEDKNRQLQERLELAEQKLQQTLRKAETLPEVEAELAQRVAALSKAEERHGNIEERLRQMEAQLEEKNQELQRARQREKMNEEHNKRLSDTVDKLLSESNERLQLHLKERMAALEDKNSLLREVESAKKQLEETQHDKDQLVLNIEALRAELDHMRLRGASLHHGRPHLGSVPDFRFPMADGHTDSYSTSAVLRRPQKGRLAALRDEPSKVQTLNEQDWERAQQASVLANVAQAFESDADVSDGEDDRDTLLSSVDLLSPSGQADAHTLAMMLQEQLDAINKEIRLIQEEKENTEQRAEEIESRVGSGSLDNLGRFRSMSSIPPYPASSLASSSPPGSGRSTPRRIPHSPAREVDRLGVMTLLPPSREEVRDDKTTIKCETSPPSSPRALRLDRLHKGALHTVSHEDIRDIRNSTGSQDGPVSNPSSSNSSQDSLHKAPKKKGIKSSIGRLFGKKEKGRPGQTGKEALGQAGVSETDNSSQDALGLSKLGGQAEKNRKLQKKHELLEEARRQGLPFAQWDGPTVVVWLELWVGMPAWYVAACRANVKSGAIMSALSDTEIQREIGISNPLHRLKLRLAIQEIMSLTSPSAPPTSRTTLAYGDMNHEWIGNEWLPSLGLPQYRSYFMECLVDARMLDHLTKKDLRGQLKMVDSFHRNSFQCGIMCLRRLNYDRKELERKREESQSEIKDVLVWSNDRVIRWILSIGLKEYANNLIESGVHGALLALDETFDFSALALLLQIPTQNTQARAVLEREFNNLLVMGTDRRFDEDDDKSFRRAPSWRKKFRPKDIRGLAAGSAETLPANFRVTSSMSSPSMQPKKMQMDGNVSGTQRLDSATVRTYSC

Variant	effect of a mutation on the interaction
N155T	disrupting interaction strength

Variants of: B1
Conditions: with dus12_human DUSP12, Q9UNI6
dus12_human DUSP12, Q9UNI6, sequence (Q9UNI6 whole entry): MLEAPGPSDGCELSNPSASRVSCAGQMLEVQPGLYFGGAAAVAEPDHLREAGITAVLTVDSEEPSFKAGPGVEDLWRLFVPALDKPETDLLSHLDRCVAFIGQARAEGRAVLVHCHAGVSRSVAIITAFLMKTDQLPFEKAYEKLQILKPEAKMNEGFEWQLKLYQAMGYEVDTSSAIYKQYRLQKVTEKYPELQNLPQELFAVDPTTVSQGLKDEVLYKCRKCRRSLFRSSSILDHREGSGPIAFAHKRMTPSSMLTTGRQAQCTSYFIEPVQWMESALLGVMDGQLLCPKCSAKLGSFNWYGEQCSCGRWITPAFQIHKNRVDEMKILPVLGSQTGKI

Variant	effect of a mutation on the interaction
N155T	disrupting interaction strength

Variants of: B2
Conditions: with zn446_human ZNF446, Q9NWS9
zn446_human ZNF446, Q9NWS9, sequence (Q9NWS9 whole entry): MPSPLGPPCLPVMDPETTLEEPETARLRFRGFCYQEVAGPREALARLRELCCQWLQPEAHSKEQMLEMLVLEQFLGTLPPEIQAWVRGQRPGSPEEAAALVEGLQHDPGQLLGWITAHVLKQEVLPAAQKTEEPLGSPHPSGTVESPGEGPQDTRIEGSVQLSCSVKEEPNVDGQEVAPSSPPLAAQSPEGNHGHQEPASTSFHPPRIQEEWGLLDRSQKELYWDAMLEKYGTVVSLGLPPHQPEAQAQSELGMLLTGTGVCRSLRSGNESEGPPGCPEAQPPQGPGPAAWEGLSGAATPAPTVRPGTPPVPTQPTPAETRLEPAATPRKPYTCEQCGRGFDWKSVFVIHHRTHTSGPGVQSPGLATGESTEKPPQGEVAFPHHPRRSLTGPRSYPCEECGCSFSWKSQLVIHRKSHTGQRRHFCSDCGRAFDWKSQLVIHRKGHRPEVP

Variant	effect of a mutation on the interaction
Q34R	with no effect

Variants of: B3
Conditions: with cetn3_human CETN3, O15182

Variant	effect of a mutation on the interaction
H36R	with no effect

Variants of: B4
Conditions: with zgpat_human ZGPAT

Variant	effect of a mutation on the interaction
R8Q	with no effect
S688L	with no effect

Variants of: B5
Conditions: with ttc32_human TTC32, Q5I0X7
ttc32_human TTC32, Q5I0X7, sequence (Q5I0X7 whole entry): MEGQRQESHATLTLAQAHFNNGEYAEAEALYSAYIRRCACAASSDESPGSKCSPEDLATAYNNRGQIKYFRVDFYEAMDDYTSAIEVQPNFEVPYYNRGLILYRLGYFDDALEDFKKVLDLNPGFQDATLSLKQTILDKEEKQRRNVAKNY

Variant	effect of a mutation on the interaction
L387F	with no effect

Variants of: B5
Conditions: with ccnc_human CCNC

Variant	effect of a mutation on the interaction
L387F	with no effect

Variants of: B6
Conditions: with creb3_human CREB3, O43889

Variant	effect of a mutation on the interaction
T60N	with no effect

Variants of: B7
Conditions: with itf2_human TCF4, P15884
itf2_human TCF4, P15884, sequence (P15884 whole entry): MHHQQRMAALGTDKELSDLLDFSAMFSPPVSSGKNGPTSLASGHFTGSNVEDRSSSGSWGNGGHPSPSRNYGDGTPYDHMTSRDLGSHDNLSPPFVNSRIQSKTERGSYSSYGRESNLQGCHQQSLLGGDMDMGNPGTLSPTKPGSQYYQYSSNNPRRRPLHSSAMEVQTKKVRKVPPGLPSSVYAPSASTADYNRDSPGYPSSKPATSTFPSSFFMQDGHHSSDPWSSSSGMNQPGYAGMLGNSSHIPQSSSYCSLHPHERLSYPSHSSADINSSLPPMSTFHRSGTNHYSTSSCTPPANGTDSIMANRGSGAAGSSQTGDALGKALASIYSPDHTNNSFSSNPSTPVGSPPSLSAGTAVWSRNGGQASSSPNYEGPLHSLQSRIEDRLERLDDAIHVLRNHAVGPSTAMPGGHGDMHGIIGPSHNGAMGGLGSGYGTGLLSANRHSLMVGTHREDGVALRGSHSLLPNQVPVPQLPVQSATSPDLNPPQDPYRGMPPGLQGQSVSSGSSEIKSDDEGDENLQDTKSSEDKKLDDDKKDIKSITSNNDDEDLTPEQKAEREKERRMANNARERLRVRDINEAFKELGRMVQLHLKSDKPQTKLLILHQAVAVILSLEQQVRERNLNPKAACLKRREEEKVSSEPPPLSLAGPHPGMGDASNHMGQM

Variant	effect of a mutation on the interaction
F229L	with no effect
R159W	with no effect

Variants of: B7
Conditions: with ikzf3_human IKZF3, Q9UKT9
ikzf3_human IKZF3, Q9UKT9, sequence (Q9UKT9 whole entry): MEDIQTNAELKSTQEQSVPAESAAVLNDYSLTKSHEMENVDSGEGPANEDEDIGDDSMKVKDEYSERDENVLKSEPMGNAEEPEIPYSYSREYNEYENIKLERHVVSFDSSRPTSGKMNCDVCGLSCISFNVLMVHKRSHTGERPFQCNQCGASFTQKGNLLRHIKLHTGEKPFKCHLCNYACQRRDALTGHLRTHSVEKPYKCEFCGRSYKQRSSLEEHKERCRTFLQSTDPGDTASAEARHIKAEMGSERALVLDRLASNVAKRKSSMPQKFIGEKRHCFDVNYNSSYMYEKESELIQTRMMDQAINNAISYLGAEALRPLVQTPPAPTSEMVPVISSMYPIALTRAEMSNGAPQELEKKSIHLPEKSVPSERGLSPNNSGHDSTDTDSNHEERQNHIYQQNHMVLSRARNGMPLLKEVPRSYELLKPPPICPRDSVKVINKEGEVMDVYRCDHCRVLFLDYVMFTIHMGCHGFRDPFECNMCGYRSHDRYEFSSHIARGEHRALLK

Variant	effect of a mutation on the interaction
F229L	with no effect
R159W	with no effect
